Starred links: 1 amine or outer side, 2 acyl side, 3 side chain; linkers in the order of their positions; H or OH if unused. Non-standard residues stand in square brackets, D forms with d. Groups on a side chain read outwards from the residue. No end group written: not given here. *: point of attachment. Decanoyl(10-(4-HOOC-PhO)) = O=C(O)c1ccc(OCCCCCCCCCC(=O)*)cc1; γGlu = O=C(O)[C@H](CCC(=O)[*:2])N[*:1]; AEEA = NCCOCCOCC(=O)O; Aib = CC(C)(N)C(=O)O
What was measured:
[1] = in words; PCT/EP2019/052487; cited from earlier work
[2] = Assay IV: Pharmacokinetic studies in Beagle dogs (oral exposure); format: in vivo; details: peroral
Description: Pharmacokinetic (PK) studies in Beagle dogs are conducted to determine the exposure of the PYY compound after peroral administration of different dosage forms.
For the pharmacokinetic studies male Beagle dogs are used, 1 to 5 years of age and weighing approximately 10-12 kg at the start of the studies. The dogs are group housed in pens (12 hours light: 12 hours dark), and fed individually and restrictedly once daily with Royal Canin Medium Adult dog (Royal Canin Products, China Branch, or Brogaarden A/S, Denmark). Exercise and group social are permitted daily, whenever possible. The dogs are used for repeated pharmacokinetic studies with a suitable wash-out period between successive dosings. An appropriate acclimatisation period is given prior to initiation of the first pharmacokinetic study. All handling, dosing and blood sampling of the animals are performed by trained and skilled staff. Before the studies the dogs are fasted overnight and from 0 to 4 h after dosing. Besides, the dogs are restricted to water 1 hour before dosing until 4 hours after dosing, but otherwise have ad libitum access to water during the whole period.
The tablets comprising the PYY compound are administered in the following manner: 10 min prior to tablet administration the dogs are dosed subcutaneously with approximately 3 nmol/kg of SEQ ID NO: 34). The PYY tablets are placed in the back of the mouth of the dog to prevent chewing. The mouth is then closed and tap water is given by a syringe or gavage to facilitate swallowing of the tablet.
Blood is sampled at predefined time points for up till 10 hr post dosing to adequately cover the full plasma concentration-time absorption profile of the PYY compound.
For each blood sampling time point approximately 0.8 mL of whole blood is collected in a 1.5 mL EDTA coated tube, and the tube is gently turned to allowing mixing of the sample with the EDTA. Blood samples (for example 0.8 mL) are collected in EDTA buffer (8 mM) and then centrifuged at 4° C. and 2000 G for 10 minutes. Plasma is pipetted into Micronic tubes on dry ice and kept at −20° C. until analysis. […]
PYY compound was assayed in dog plasma by plasma protein precipitation and turboflow liquid chromatography tandem mass spectrometry (TF-LC-MS/MS). […] The mixture was analysed by TF-LC-MS/MS using a Cyclone turboflow column (0.5×50 mm, ThermoFisher Scientific) and an Aeris Peptide 3.6 um XB-C18 analytical column (50×2.1 mm, Phenomenex) or a Poroshell SB-C18 2.7 um analytical column (50×2.1 mm, Agilent). […] The deviation between nominal and calculated concentration in the calibrators and quality control samples was below 20%. […]

[3] = Test 4 tablet, SNAC amount 100 mg
[4] = Test 3 tablet, SNAC amount 300 mg

In the case of “N-epsilon26-[2-(2-{2-[2-(2-{2-[(S)-4-carboxy-4-(17-carboxyheptadecanoylamino) butyrylamino]ethoxy}ethoxy)acetylamino]ethoxy}ethoxy)acetyl][Aib8,Arg34]GLP-1(7-37) [Semaglutide]”, the “Oral availability when formulated in a SNAC formulation” value [1] is listed as “orally available”.

In the case of “N-epsilon27-[2-[2-[2-[[2-[2-[2-[[(4S)-4-carboxy-4-[10-(4-carboxyphenoxy)decanoylamino]butanoyl]amino]ethoxy]ethoxy]acetyl]amino]ethoxy]ethoxy]-acetyl], N-epsilon36-[2-[2-[2-[[2-[2-[2-[[(4S)-4-carboxy-4-[10-(4-carboxyphenoxy)decanoylamino]-butanoyl]amino]ethoxy]ethoxy]acetyl]amino]ethoxy]ethoxy]acetyl]-[Aib8,Glu22,Arg26,Lys27, Glu30,Arg34,Lys36]-GLP-1-(7-37)-peptidyl-Glu-Gly (H[Aib]EGTFTSDVSSYLEEQAARK([AEEA-AEEA-γGlu-Decanoyl(10-(4-HOOC-PhO))])FIEWLVRGK([AEEA-AEEA-γGlu-Decanoyl(10-(4-HOOC-PhO))])GEG) [GLP-1 agonist A]”, the “Oral availability when formulated in a SNAC formulation” value [1] is listed as “orally available”.

In the case of “N{alpha-4}-(3-Methylbutanoyl)-N{Epsilon-7}-6-[[(4S)-4-carboxy-4-(17-carboxy-heptadecanoylamino)butanoyl]amino]hexanoyl-[Arg4,Lys7,Gln18,Ile22,Tyr28, Trp30,Leu31]hPYY(4-36) [Compound 32]”, the “Dose corrected AUC 0-30 min” value [2, 3] was 5.05 arbitrary unit and the “Dose corrected exposure t = 30 min” value [2, 3] was 0.268 kg/L.

In the case of “N{alpha-4}-(3-Methylbutanoyl)-N{Epsilon-7}-6-[[(4S)-4-carboxy-4-(17-carboxy-heptadecanoylamino)butanoyl]amino]hexanoyl-[Arg4,Lys7,Pro9,Gln18,Tyr28,Trp30,Leu31]hPYY(4-36) [Compound 4]”, the “Dose corrected AUC 0-30 min” value [2, 4] was 2.24 arbitrary unit and the “Dose corrected exposure t = 30 min” value [2, 4] was 0.138 kg/L.

Source: patent US20220280611A1, “SOLID COMPOSITION COMPRISING A PYY COMPOUND AND A SALT OF N-(8-(2- HYDROXYBENZOYL)AMINO)CAPRYLIC ACID” (Novo Nordisk A/S, priority 2019, published 2022)
